Data set [1] is described as follows: Optimal temperature, cysteine synthase activity assaying method (2). It counts as biochemical. Particulars: 4 minutes reaction, FIG. 2. As for the experimental part:
The optimal temperature was determined by the following assaying method (2) for cysteine synthase activity. Assaying Method of Cysteine Synthase Activity (2) Purified enzyme was added to 50 mM potassium phosphate buffer (pH 7.5 or 7.0) containing 20 mM O-acetylserine and 2 mM sodium sulfide as substrates, and 0.2 mM pyridoxal 5′-phosphate so as to establish an enzyme concentration of 0.8 μg/mL, the reaction was brought about for 4 minutes, and the amount of cysteine synthesized was determined by the ninhydrin method to assay the enzyme activity.

A short description of data set [2]: Heat resistance, residual activity after incubation, assaying method (1). It counts as physicochemical. Conditions: for residual activity: 0.3 mg/mL enzyme in 50 mM potassium phosphate buffer (pH 6.7), FIG. 3. As for the experimental part:
The optimal pH was determined by the following assaying method (1) for cysteine synthase activity. Assaying Method of Cysteine Synthase Activity (1) Four enzyme solution samples were prepared by adding cysteine synthase to 50 mM potassium phosphate buffer (pH 6.7) containing 1 mM EDTA and 0.2 mM pyridoxal 5′-phosphate so as to obtain an enzyme concentration of 0.3 mg/mL. The samples were incubated for 6 hours at 4° C., 80° C., and 100° C., respectively, to assay residual activity.

Here are results for one molecule from patent US20040002075A1, “Heat-resistant cysteine synthase” (priority 2001, published 2004).

B1: cysteine synthase: Heat-resistant cysteine synthase (O-acetylserine sulfhydrylase) of hyperthermophilic archaea Aeropyrum pernix K1, SEQ ID NO: 2, produced recombinantly in E. coli (protein)
chain: VALADISGYLDVLDSVRGFSYLENAREVLRSGEARCLGNPRSEPEYVKALYVIGASRIPVGDGCSHTLEELGVFDISVPGEMVFPSPLDFFERGKPTPLVRSRLQLPNGVRVWLKLEWYNPFSLSVKDRPAVEIISRLSRRVEKGSLVADATSSNFGVALSAVARLYGYRARVYLPGAAEEFGKLLPRLLGAQVIVDPEAPSTVHLLPRVMKDSKNEGFVHVNQFYNDANFEAHMRGTAREIFVQSRRGGLALRGVAGSLGTSGHMSAAAFYLQSVDPSIRAVLVQPAQGDSIPGIRRVETGMLWINMLDISYTLAEVTLEEAMEAVVEVARSDGLVIGPSGGAAVKALAKKAAEGDLEPGDYVVVVPDTGFKYLSLVQNALEGAGDSV
modifications: Aeropyrum pernix K1
For B1, the optimal temperature entry in data set [1] (50 mM potassium phosphate buffer pH 7.0) was “about 60 °C”; in data set [1] (50 mM potassium phosphate buffer pH 7.5), “about 50 °C”. Also, the residual activity entry in data set [2] (after 6 hours of incubation at 80° C.) was “about 97%”; in data set [2] (after 6 hours of incubation at 100° C.), “about 85%”. Besides, in data set [2] (heat-treatment at 80° C. for 6 hours), the “activity of the enzyme after heat-treatment” value is given as “substantially unimpaired”.
